Results: PMC4069162

Key:
Experiment in all cases: cross-linking; in vivo cross-linking with DSP in S. enterica ATCC14028SΔacrABΔmdsABC::Cm5ΔtolC::Tn10 cells coexpressing MdsA-flag, MdsB-myc and MdsC-hexahistidine (grown to OD600 = 0.8); MdsC-His isolated on a Ni-NTA resin column, cross-linked MdsA detected by anti-flag immunoblot
[1] = molecular target: MdsC with a c-terminal hexahistidine tag (wild type) (Salmonella enterica serovar Typhimurium ATCC14028S)
[2] = molecular target: MdsC-G220A with a c-terminal hexahistidine tag (Salmonella enterica serovar Typhimurium ATCC14028S)
[3] = molecular target: MdsC-L441R with a c-terminal hexahistidine tag (Salmonella enterica serovar Typhimurium ATCC14028S)
[4] = molecular target: MdsC-G433A with a c-terminal hexahistidine tag (Salmonella enterica serovar Typhimurium ATCC14028S)

MdsA-S146D with a c-terminal flag tag (from UniProt A0A4P7XPD4 1-408) (natural protein)
crosslinking to MdsC, percent of wild type [1]: 16%

MdsA with a c-terminal flag tag (wild type) (from UniProt A0A4P7XPD4 1-408) (natural protein)
MdsA crosslinked, percent of that with wild-type MdsC [2]: 20% | MdsA crosslinked, percent of that with wild-type MdsC [3]: 16% | MdsA crosslinked, percent of that with wild-type MdsC [4]: 39%
